In this test the target is T1, CheA3P1, the isolated P1 (Hpt, histidine-containing phosphotransfer) domain of CheA3 (residues 1-135), unphosphorylated.
T1 chain: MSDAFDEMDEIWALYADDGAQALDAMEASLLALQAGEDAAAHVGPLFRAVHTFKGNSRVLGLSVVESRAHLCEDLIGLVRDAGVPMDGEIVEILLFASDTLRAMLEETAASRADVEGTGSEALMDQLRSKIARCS
The experiment in a line: SPR. As to conditions: chain shown with the change; CheA3P1 injected over surfaces coupled with the respective RR; CheA3P1 concentration ranging from 120 nM to 2 mM; parent: ND.

This note sets out measurements from PMC2817712.

As usually defined, the Kd is the constant that tells how readily two partners part at equilibrium.

B1: CheY4 (wild type) with an engineered C-terminal biotinylation tag, for SPR surfaces P12A; S13M; C16L; M17Y (protein)
chain: MTKTVLAVDDSAMIRLYVALTLREAGYEVIEASDGQEALDLALSRPVDAILTDQNMPRLDGLGFIRAFRSRPEGKGTPIVFLSTESADTLKAEARAAGALGWMVKPFTQAQLLAVMKKLLG
As to B1, the Kd was 365 µM.

B2: CheY4 (wild type) with an engineered C-terminal biotinylation tag, for SPR surfaces P12A; S13M (protein)
chain: MTKTVLAVDDSAMIRCMVALTLREAGYEVIEASDGQEALDLALSRPVDAILTDQNMPRLDGLGFIRAFRSRPEGKGTPIVFLSTESADTLKAEARAAGALGWMVKPFTQAQLLAVMKKLLG
As for B2, the dissociation constant Kd worked out at 678 µM.
